US20070031417A1 (UNIVERSITY OF MASSACHUSETTS, published 2007)

B1: RDE-4 (other)
chain: MDLTKLTFESVFGGSDVPMKPSRSEDNKTPRNRTDLEMFLKKTPLMVLEEAAKAVYQKTPTWGTVELPEGFEMTLILNEITVKGQATSKKAARQKAAVEYLRKVVEKGKHEIFFIPGTTKEEALSNIDQISDKAEELKRSTSDAVQDNDNDDSIPTSAEFPPGISPTENWVGKLQEKSQKSKLQAPIYEDSKNERTERFLVICTMCNQKTRGIRSKKKDAKNLAAWLMWKALEDGIESLESYDMVDVIENLEEAEHLLEIQDQASKIKDKHSALIDILSDKKRFSDYSMDFNVLSVSTMGIHQVLLEISFRRLVSPDPDDLEMGAEHTQTEEIMKATAEKEKLRKKNMPDSGPLVFAGHGSSAEEAKQCACKSAIIHFNTYDFTD
notes: Endogenous protein from C. elegans extract; also called T20G5.11

Assays:
Test in all cases: found in two independent RDE-4 purifications, absent from controls, MudPIT (P = present)
[1] = molecular target: T1, EFT-2, EF-Tu family GTP binding protein (Caenorhabditis elegans, UniProt P29691 2-852)
T1 construct: Endogenous protein from C. elegans extract; also called F25H5.4; translation elongation factor 2

TBB-4 = molecular target: T2, TBB-4 (Caenorhabditis elegans, UniProt P41937 1-444)
T2 construct: Endogenous protein from C. elegans extract; also called B0272.1; tubulin, Beta
T2 sequence (P41937 whole entry): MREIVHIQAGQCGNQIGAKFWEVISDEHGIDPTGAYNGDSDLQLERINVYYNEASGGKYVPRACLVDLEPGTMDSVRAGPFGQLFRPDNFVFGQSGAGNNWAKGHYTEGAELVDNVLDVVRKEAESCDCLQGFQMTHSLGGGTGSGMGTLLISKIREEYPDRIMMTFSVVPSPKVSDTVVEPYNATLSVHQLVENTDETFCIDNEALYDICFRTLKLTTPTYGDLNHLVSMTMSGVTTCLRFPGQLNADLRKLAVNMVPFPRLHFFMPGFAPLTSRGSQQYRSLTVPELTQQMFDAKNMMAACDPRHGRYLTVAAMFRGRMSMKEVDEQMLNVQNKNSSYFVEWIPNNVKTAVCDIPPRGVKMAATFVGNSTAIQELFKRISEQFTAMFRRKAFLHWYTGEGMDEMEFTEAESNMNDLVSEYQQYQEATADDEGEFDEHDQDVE

RDE-4 = molecular target: B1

B1: binds [1]; binds (TBB-4).

B2: DRH-2 (enzyme)
chain: MIVNLCNEHRDPLDDEYPPEQFFLSTFTIIFFDECHNTVKNSPYSNVMREYHYLKNMGNMPEGHSFPQIIGLTASLGTGDKKNCMQVRSYIAGLCANMDVKELSIVKDNLEELLDHNPFVTDQVSFCERSNDGPIEMFTKRLKQMMQEVEDLIRTTLKNEPTVKYEIPPTDKEHNRYENWISNQRNCVSLAGSRNKTLIIEVLDVLKDCFYALSYNINFNPEVALKKYLEKELGPERIRNFTDNMNLIWDNCHRELVGIGSAENPMIARTVQFILDQNEQTSDFRAIIFVRTKKEADFLNYVLNDRLHELGIKSDWMSGQKKSTASSADISASKQKQMEKLKMFADGENQILVSTSVAEEGLDIPECSLVIKYNYATNETAHVQRRGRARARNSKCVLITNSIALHVQESNNLAKENLMTETISLIQNSPGEFRQCVDEESNKVWPRIQREDTDKAQRIKEQINRNIVYKIVCMKCDTVLCTNKDIRSKNTQYIVCNPGFWSLVRRIPLPLEQRASNKFNSTGSIECLGERCGSKLGQLIDVNTVNLPCLKVKSILLLIESTNERILVKQWKNILDEHFTPTTLKQRDVQTMKDADYGRAPIEFEHHTANGEVINVIRQA
notes: Endogenous protein from C. elegans extract; also called C01B10.1; Dicer-Related Helicase
B2: binds (RDE-4).
